Data published in the supplement of paper PMC12636428.

The sequences below were run on Saccharomyces cerevisiae (assay: transcriptional activation domain activity (GFP:mCherry ratio, weighted mean of sorted bins, harmonized to initial dataset scale) (arbitrary fluorescence ratio units); higher = stronger transcriptional activation). Details: beta-estradiol 1 µM; induction time 4 h.
Procedure, shortened: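 Sorting into 8 bins by GFP:mCherry ratio followed a 4-hour hold at 30 °C after cultures were diluted 1:5 into SC with 1 uM beta-estradiol. The yeast diploids carried a GFP reporter and had barcoded protein tiles, fused to an estradiol-inducible synthetic transcription factor, integrated at URA3. Barcodes were then sequenced, and tiles with under 50 reads were removed. Activation activity is the read-weighted mean of bin median fluorescence, averaged across barcodes and linearly mapped onto the initial dataset scale.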

Sequence	transcriptional activation domain activity
IRSSSHLFPISPFYFVFLFWSSFSVFTMLLLPPTIPRSNQFRAFSSFLWFSWI	67000
KFKTFPLFLPRINFHSIPSFNILLSSFPNSIFLNVLFRISLYYIWAYFLWCAL	52000
ENGRNLLRELLIFVAAWDLREEELYFKFMVKILESILVNGYLPYAYHAFREYD	62000
KTRGFQEGVSLTVYDELARWEKYAYGCNELIFHPMRYWPTRGPFTKLFIRFIF	41600
MIKRLRWRRKIERNLPEFRLIPFLQRLLWLLLLLQFLLHLLHPPILCLHRLRY	50700
MLMFLRCGLGLRFGVLVCGCRSTFVCWSLQRAFANMLRARSLPWIFLAWVILL	76000
VARKLLNTIHPALGPLHACSVLRKIRVLICMAGEHATSTYPLEMLLHSLRVFV	44700
GEASAEKTKKRSRASKGGEDGKKKKSKEARVESNGANGHAGGDAAAAAAAEQQ	30400
MRTLHGLVYFFPFILYHRLVFLWLRVLALSRYVFLFSVCFPWSVLVTFVIFLY	80100
GCWGETWWYTMQFGALLAEGAAQHWLGLLEQKVLPWSRYGMMQKGLRRLFGYV	75600
SSDYSIAQFRFLLKLLLVHGRWNYVRICKYILGTFYKEFMFYLTQLIYQRNTM	39600
RNLMVIVLVVGNLRLVIENIQKYGVLICIRCHDFRQHDVMLGLLLYFLIPCHL	53400
PAASGSDDDEPIAAKKPSAPRKRKAKVESDSDDEKPIAKKLAAKKPRASKVKA	14100
MAVETVGLGWRTLRSLIIEFILFYCLFTALGYNSLSLLNYRPWIFFSFLFCLF	57500
IYIFPINTTIASFALGYLSIFYLIYAILTVLPTFFFDCPYGTPFSALMWRISH	62300
LIPTEGGELALGGAPLEDEDESTSDEEETPKASFQARLERLRKRMDGRPIKDI	26300
MTVSLQLYSHTLQLVLCCACAPPLLKFLLFCFFFFFWFFFFFWFCFWFFLLMF	38000

Sequence	transcriptional activation domain activity
AAAAAAAAAAAAAAAAAAAAAAAAAAAQQRRRQQQQQRRGSSAAARRQQQQQR	22600
RRRFRNAKYFVHFIQLVRLLNICLQFEISNAEIEEVRVGFIAWVRRYEELYYQ	42800
IKLMTLLYVFCRCSAVANVIYTVAITSSLDTLRVTYRISSVISLLCRTSVMMV	43300
INSTVHNLCELVLLPELFGFCCFSMRFFVFIDLVGTLILPATVVYLFYLIIVV	39400
KFYARILKLLLLLNHILIIAGVNESPYSKDKVIRYLFNMFRLWTTKRSAKENQ	62000
PTQEVLRFCKRELMHKLWNLLMDDDFLHAYMHGIVVCCGDGVLRRLFPRIFTY	44400
TSPKKKGRAAAKGKKGADKENAEAKTEVEKKASEDEFKDLEPNGDSKTNGAAA	< 6570
HVYGPTLVVHRYSLPLLFYYFVLFMFLESLPRLFRCISLFFQLAQLLMLLVPI	34100
DVKKVYFASRFPGNWLRDYSQAMDIAGLSKLSSDTLVLVVAVLGFMTFGFATE	38900
WLAHSKKKDCDVCKHPYSFNKVYSPDMPARLPPVLLLRHLAKQLFFTVLFSIR	76900
KLIFIFFFFYFFSFFVLLLLLLFLLLLFLPLLMATSACMLGLMFDKLPFFSNI	46300
AAINGSANGKRRRTKEDGGEKADGRAGPKSENVVLQKTIEHIHGLLQHKSVLL	45900
NLMLQVVSPRIWFPSMQLIWGVLTFWWVAMPCRRIFITHILDHGIQIYAIRFF	61400
MGCILIFIFTFPYTPSFPFPFWFLFFVFLSFSFSFQKFLVFSFLSFVWVTVGR	51700
DGSIMEINGIPLSMLGETGSVKFQSLFANTSNSNDYNNNRTLLDASNDISIPS	61900
MGCDVVGCDVVGFLFFLFFFILFLGLLVCWLAGWHVCWVFWFLVFVLGGLGGL	48200
ESAVKFENSGPFINPSRASTLLVSRDSNRIILSGTTARGKTAVFLTTGLLVES	63200
